Values belong to the binder of their own block, whether it stands above or below them.
Columns and labels:
[1] = molecular target: T1, GARS, endogenous in H929 multiple myeloma cells (human, UniProt P41250 37-739, limits assumed); experiment: flow cytometry, H929 + ICAM1 siRNA; None 455; surface target GARS putative
T1 construct: Native protein pulled down from H929 lysates; also called Glycyl-tRNA synthetase; GlyRS
T1 sequence: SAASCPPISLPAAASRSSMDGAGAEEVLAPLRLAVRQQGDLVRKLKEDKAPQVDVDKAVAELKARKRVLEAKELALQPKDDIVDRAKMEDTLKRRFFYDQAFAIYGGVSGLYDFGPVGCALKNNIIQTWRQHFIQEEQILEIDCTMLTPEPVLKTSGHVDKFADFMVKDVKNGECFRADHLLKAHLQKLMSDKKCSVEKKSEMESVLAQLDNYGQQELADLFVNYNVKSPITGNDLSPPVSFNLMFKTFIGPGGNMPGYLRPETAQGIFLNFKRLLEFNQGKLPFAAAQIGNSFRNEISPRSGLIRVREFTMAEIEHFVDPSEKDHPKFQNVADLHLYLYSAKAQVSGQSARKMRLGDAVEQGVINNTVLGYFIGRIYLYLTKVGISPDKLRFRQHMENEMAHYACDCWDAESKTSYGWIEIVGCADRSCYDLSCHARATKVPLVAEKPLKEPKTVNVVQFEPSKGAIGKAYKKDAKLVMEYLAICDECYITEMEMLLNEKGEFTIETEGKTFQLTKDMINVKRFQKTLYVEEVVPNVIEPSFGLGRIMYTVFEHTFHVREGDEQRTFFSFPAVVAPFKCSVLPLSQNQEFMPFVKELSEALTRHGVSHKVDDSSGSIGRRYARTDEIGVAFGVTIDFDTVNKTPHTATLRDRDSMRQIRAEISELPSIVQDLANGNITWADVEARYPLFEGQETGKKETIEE

[2] = molecular target: T1, GARS, endogenous in H929 multiple …; experiment: flow cytometry, H929 + GARS siRNA (siRNA against the putative target); None 452
[3] = molecular target: T1, GARS, endogenous in H929 multiple …; experiment: flow cytometry, H929 + vehicle; None 513; surface target GARS putative
SELL (L-Selectin) = molecular target: T2, SELL (L-Selectin); experiment: ELISA on coated SELL-Fc-His
T2 construct: coated protein in the ELISA; also called SELL-Fc-His (R&D Systems)
T2 chain: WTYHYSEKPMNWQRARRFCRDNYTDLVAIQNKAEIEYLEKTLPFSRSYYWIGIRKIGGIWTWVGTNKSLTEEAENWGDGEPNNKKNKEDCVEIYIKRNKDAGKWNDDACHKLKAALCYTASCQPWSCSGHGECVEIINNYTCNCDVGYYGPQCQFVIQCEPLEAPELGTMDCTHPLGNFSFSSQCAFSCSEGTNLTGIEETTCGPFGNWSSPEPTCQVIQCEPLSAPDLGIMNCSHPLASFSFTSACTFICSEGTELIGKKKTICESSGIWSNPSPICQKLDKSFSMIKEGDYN
Protocol: Recombinant purified ECDs (50-150 ng) of each putative target protein were coated, incubated with 150 ng of the indicated primary antibody, and binding was detected using a peroxidase-conjugated anti-human Fab secondary antibody. Heatmap represents averages of technical triplicates. (8B) Target validation via siRNA knockdown. H929 cells were transfected with siRNA pools targeting the putative antibody targets ICAM1, CADM1, and PTPRG. Cells were then subjected to cognate IgG binding analysis via flow cytometry. (NT, non-targeting siRNA).
ELISA ELISA was conducted as described previously. Briefly, 50-150 ng of antigen was coated overnight in half-area 96-well plates at 4° C., blocked with 3% BSA at 37° C. for 1 h, and 150 ng of chimeric rabbit/human IgG1 was added, incubating for 2 h at 37° C. […] After incubating at 37° C. for 15 min-1 h (depending on intensity of controls), data were acquired using a SpectraMax M5 plate reader (Molecular Devices).

[4] = molecular target: T1, GARS, endogenous in H929 multiple …; experiment: flow cytometry, H929 + NT Green siRNA; None 416; surface target GARS putative
[5] = molecular target: T1, GARS, endogenous in H929 multiple …; experiment: flow cytometry, H929 + CDH18 siRNA; None 443; surface target GARS putative

mAb binding (MFI) [1]: 640000 | mAb binding (MFI) [2]: 216000 | mAb binding (MFI) [3]: 682000 | mAb binding (MFI) [4]: 693000 | mAb binding (MFI) [5]: 193000
B1: HW-81 chimeric rabbit-human IgG1 LA/LA/PG (antibody, V domains shown)
VH: QKQLVESGGGLVTPGGTLTLTCTVSGFSLSSNGVSWVRQAPGKGLEYIGLIRSIGSTYYATWAKGRFTISKTSTTVDLKITSPTTEDTATYFCARGGYRNGFKLWGPGTLVTVSS
VL: QPVLTQSPSVSAALGASAKLTCTLSSAHKTYYIEWYQQQHPGKAPRYLMQLQSDGSYTKGTGVPDRFSGSSSGADRYLIISSVQAEDEADYICGVIDSAVYVFGGGTQLTVTG
notes: Fc-silenced (L234A/L235A/P329G) IgG1, lambda; Alexa Fluor 647-labeled in single-step flow cytometry; Cluster C-45
binding result (SELL (L-Selectin)): no binding (tested: 150 ng IgG1 per well)

mAb binding (MFI) [1]: 497000 | mAb binding (MFI) [2]: 413000 | mAb binding (MFI) [3]: 481000 | mAb binding (MFI) [4]: 499000 | mAb binding (MFI) [5]: 400000
B2: HW-56 chimeric rabbit-human IgG1 LA/LA/PG (antibody, V domains shown)
VH: QSVKESEGGLFKPTDTLTLTCTASGFTVSTNAVTWVRQAPGNGLEYIGTIGRSGSAYFASWAKRRSTLTRDINLNTVTLKMTSLTAADTATYFCVRGSPGYRTAISIWGPGTLVTISS
VL: AVMTQTPSSTSAAVEGTVTINCQASQSISNRLSWFQQKPGQPPKLLIYQASTLASGVPSRFKGSGSGTEFTLTISGVQREDAATYYCLGSYSSSDASFGGGTKLEIKR
notes: Fc-silenced (L234A/L235A/P329G) IgG1, kappa; Alexa Fluor 647-labeled in single-step flow cytometry; Cluster C-45

mAb binding (MFI) [1]: 20800 | mAb binding (MFI) [2]: 76900 | mAb binding (MFI) [3]: 25400 | mAb binding (MFI) [4]: 29500 | mAb binding (MFI) [5]: 59600
B3: HW-45 chimeric rabbit-human IgG1 LA/LA/PG (antibody, V domains shown)
VH: QKQLVESGGRLVTPGTPLTLTCTVSGFSLSSYAMGWFRQAPGKGLEWIGIINSYGSTYYASWAKGRFTISKTSTTVDLKITSPTTEDTATYFCGRRIGSARFDPWGPGTLVTVSS
VL: SFVLTQPASVQVNLGQTVSLTCTADTLSRSYASWYQQKPGQAPVLLIYRDTRRPSGVPDRFSGSSSGNTATLTISGAQAGDEADYYCATSDGSGSSYRLVFGGGTQLTVTG
notes: Fc-silenced (L234A/L235A/P329G) IgG1, lambda; Alexa Fluor 647-labeled in single-step flow cytometry; Prototype of cluster C-45

mAb binding (MFI) [1]: 11400 | mAb binding (MFI) [2]: 109000 | mAb binding (MFI) [3]: 16700 | mAb binding (MFI) [4]: 15500 | mAb binding (MFI) [5]: 75300
B4: HW-8 chimeric rabbit-human IgG1 LA/LA/PG (antibody, V domains shown)
VH: QSLEESGGRLVTPGTPLTLTCTVSGFSLSSYAMSWVRQAPGKGLEWIGAISTGGSTTYASWAKGRFTISKTSSTTVDLKMTSLTTEDTATYFCVRHFRLWGPGTLVTISS
VL: QVLTQTPSSVSAAVGGTVTIKCQASQSIGSALAWFQQKPGQRPKLLIYRASNLASGVPSRFKGSGSGTEFALTISGVQREDAATYYCLGGAAAVWAFGAGTNVEIKR
notes: as for B2
binding result (SELL (L-Selectin)): no binding (tested: 150 ng IgG1 per well)

mAb binding (MFI) [1]: 48900 | mAb binding (MFI) [2]: 155000 | mAb binding (MFI) [3]: 61100 | mAb binding (MFI) [4]: 59500 | mAb binding (MFI) [5]: 174000
B5: HW-16 chimeric rabbit-human IgG1 LA/LA/PG (antibody, V domains shown)
VH: QSLEESGGRLVTPGTPLTLTCTASGFSLSSYAMSWVRQAPGKGLEWIGTMPTGGGTYYASWAKGRFTISKTSTTVDLQITSPTTEDTATYFCAKHWNIWGPGTLVTISS
VL: DIVLTQTPSSTSTAVGDTVTINCRASQSIGRNLAWFQQKPGQPPKLLIYRASNLASGVPSRFKGSGSRTQFTLTISGVQREDAATYYCLGSYSSSDTAFGGGTELEILR
notes: as for B2

— patent US20260049134A1 (UNIVERSITY OF FLORIDA RESEARCH FOUNDATION, published 2026)
